In the supplement of paper PMC10057847, “Precision engineering of biological function with large-scale measurements and machine learning” (PLOS ONE, 2023):
± gives the uncertainty stated by the source.

B1: library; the commonest letter at each place (parent)
chain: MKPVTLYDVAEYAGVSYQTVSRVVNQASHVSAKTREKVEAAMAELNYIPNRVAQQLAGKQSLLIGVATSSLALHAPSQIVAAIKSRADQLGASVVVSMVERSGVEACKAAVHNLLAQRVSGLIINYPLDDQDAIAVEAACTNVPALFLDVSDQTPINSIIFSHEDGTRLGVEHLVALGHQQIALLAGPLSSVSARLRLAGWHKYLTRNQIQPIAEREGDWSAMSGFQQTMQMLNEGIVPTAMLVANDQMALGAMRAITESGLRVGADISVVGYDDTEDSSCYIPPLTTIKQDFRLLGQTSVDRLLQLSQGQAVKGNQLLPVSLVKRKTTLAPNTQTASPRALADSLMQLARQVSRLESGQ

How the values were obtained:
Conditions in all cases: with IPTG
IPTG [1] = variants of: B1
In short: (§1)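 In E. coli MG1655Δlac with pVER-encoded LacI and a lacO-controlled eYFP, cells grown at 37 °C in kanamycin-containing rich M9 underwent two 160-min growth steps over a 2-fold IPTG dilution series and zero IPTG. After dilution in PBS with chloramphenicol, YFP was read by flow cytometry with gating and bead calibration to MEF. Bayesian MCMC Hill fits of geometric mean fluorescence versus IPTG on non-outlier replicates gave EC50, G0, G∞ and n along with their uncertainties.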

IPTG [2] = variants of: B1; experiment: Hill coefficient n (dimensionless); higher = steeper dose response
In short: as §1

IPTG [3] = variants of: B1; experiment: basal output G0 (YFP, no IPTG) (log10 MEF); higher = higher reporter expression without inducer
In short: as §1

IPTG [4] = variants of: B1; experiment: saturating output G-infinity (YFP) (log10 MEF); higher = higher reporter expression at saturating IPTG
In short: as §1

Variant	EC50 for IPTG (log10 µmol/L) (IPTG [1])	Hill coefficient n (IPTG [2])	basal output G0 (log10) (IPTG [3])	saturating output G-infinity (log10) (IPTG [4])
G103D H202Y P284T	1.5 ± 0.016	1.64 ± 0.075	2.85 ± 0.11	4.458 ± 0.0062
S69T S97T	1.37 ± 0.019	1.55 ± 0.059	2.65 ± 0.11	4.496 ± 0.0072
S190C	2.091 ± 0.0053	1.65 ± 0.019	2.31 ± 0.049	4.4474 ± 0.0025
A138T A214V V244L	1.808 ± 0.0078	1.61 ± 0.025	2.43 ± 0.047	4.4294 ± 0.0033
L56M	1.05 ± 0.033	1.39 ± 0.12	3.976 ± 0.018	4.548 ± 0.0075
L56M Q317L	1.07 ± 0.085	1.44 ± 0.3	3.96 ± 0.044	4.485 ± 0.018
L62M A109V D149E M242V P285S Q317R	2.91 ± 0.051	1.37 ± 0.066	2.56 ± 0.042	4.412 ± 0.028
A72V A110V N142D S322L	0.557 ± 0.022	1.42 ± 0.1	3.778 ± 0.015	4.443 ± 0.0049
V136E F161V	3.713 ± 0.031	1.84 ± 0.2	4.516 ± 0.0031	4.229 ± 0.011
K203N D278V S280L I283V	1.8 ± 0.022	1.73 ± 0.085	3.192 ± 0.021	4.401 ± 0.009
L56M D130E	0.886 ± 0.058	1.42 ± 0.21	4.026 ± 0.027	4.51 ± 0.011
Q181H	2.037 ± 0.0042	1.625 ± 0.015	2.24 ± 0.049	4.4146 ± 0.0018
Q89L S158C E172K Q291H	2.457 ± 0.021	1.33 ± 0.04	3.336 ± 0.007	4.341 ± 0.0086
A27T A87T S102G N316I L330P Q352R	1.04 ± 0.011	1.44 ± 0.038	3.624 ± 0.013	4.5229 ± 0.003
G91D V94A R101G S158C T167M E172D A176S F226Y T276S T299A	2.31 ± 0.027	1.25 ± 0.063	4.329 ± 0.0062	3.63 ± 0.0095
V95M A337T	2.109 ± 0.018	1.59 ± 0.082	2.13 ± 0.64	4.23 ± 0.0081
V80L I83M	2.444 ± 0.013	1.37 ± 0.045	0.521 ± 0.46	3.718 ± 0.0043
V80L S279T	1.566 ± 0.0048	1.56 ± 0.023	2.07 ± 0.088	3.9365 ± 0.0017
S70R S97T F161V	1.71 ± 0.068	1.16 ± 0.12	3.29 ± 0.059	4.429 ± 0.023

Variant	EC50 for IPTG (log10 µmol/L) (IPTG [1])	Hill coefficient n (IPTG [2])	basal output G0 (log10) (IPTG [3])	saturating output G-infinity (log10) (IPTG [4])
E11K A67P F161S A186V M230L D344N	0.815 ± 0.031	1.44 ± 0.11	3.548 ± 0.033	4.236 ± 0.006
S70R N208Y	1.444 ± 0.0064	1.46 ± 0.026	2.66 ± 0.045	4.2522 ± 0.0022
I83M S97T V136E	2.29 ± 0.05	0.765 ± 0.058	4.52 ± 0.0074	4.113 ± 0.012
S120G M223L F226L L319F R355L	2.248 ± 0.015	1.51 ± 0.035	2.781 ± 0.021	4.407 ± 0.0067
S70R F161V	2.02 ± 0.013	1.29 ± 0.039	3.01 ± 0.037	4.3852 ± 0.0042
H74Y A92V H112L S151T D165N H179Q	1.29 ± 0.014	1.54 ± 0.049	4.426 ± 0.0049	3.262 ± 0.017
V80L	2.098 ± 0.0098	1.52 ± 0.036	1.75 ± 0.28	3.914 ± 0.0043
S69T L169P	2.348 ± 0.019	1.43 ± 0.062	2.68 ± 0.082	4.362 ± 0.0071
P285S V301M S308P M347V	0.927 ± 0.019	1.33 ± 0.057	3.595 ± 0.017	4.489 ± 0.0054
S70R V96E T154I S158R V238D M254I V264I	3.671 ± 0.018	3 ± 0.23	4.516 ± 0.0061	3.396 ± 0.026
M42I	2.437 ± 0.015	1.43 ± 0.046	0.821 ± 0.6	4.148 ± 0.0056
N125D	2.739 ± 0.019	1.27 ± 0.038	2.73 ± 0.035	4.445 ± 0.0072
N208Y	2.01 ± 0.0066	1.64 ± 0.026	2.24 ± 0.14	4.4021 ± 0.003
V24L V52M A72T A214V I268V K325Q P332H A337V	1.467 ± 0.0061	1.59 ± 0.03	2.62 ± 0.054	4.2255 ± 0.002
R51H	1.19 ± 0.02	1.46 ± 0.061	3.701 ± 0.013	4.63 ± 0.0066
V301M	1.82 ± 0.049	1.53 ± 0.16	2.32 ± 0.83	4.469 ± 0.021
V94M S190C G200A Q209R R263H Q317L	1.44 ± 0.025	1.4 ± 0.072	3.418 ± 0.023	4.454 ± 0.0086
Q55H D130E V192A T258I D267N Y273H N333I	2.889 ± 0.028	1.39 ± 0.097	4.402 ± 0.0063	3.681 ± 0.016
S69F V95A A110E I159S	1.109 ± 0.01	1.64 ± 0.055	2.8 ± 0.081	4.2252 ± 0.003

Variant	EC50 for IPTG (log10 µmol/L) (IPTG [1])	Hill coefficient n (IPTG [2])	basal output G0 (log10) (IPTG [3])	saturating output G-infinity (log10) (IPTG [4])
M42L V66I S93N D132V	1.646 ± 0.0068	1.59 ± 0.033	2.55 ± 0.058	4.1768 ± 0.0024
S70R Q231R	1.509 ± 0.0064	1.47 ± 0.025	2.67 ± 0.037	4.251 ± 0.0022
S69T I83M	2.293 ± 0.009	1.48 ± 0.033	1.02 ± 0.61	4.2699 ± 0.0031
I83M V136E	1.48 ± 0.029	1.21 ± 0.075	4.519 ± 0.0083	3.789 ± 0.011
K84E D88Y L90P Q153L A199V L342M R351P S358R	1.47 ± 0.046	0.795 ± 0.045	4.34 ± 0.01	3.722 ± 0.01
S70R Q181H	1.49 ± 0.03	1.46 ± 0.12	2.55 ± 0.62	4.269 ± 0.011
G200C	2.729 ± 0.016	1.58 ± 0.049	1.48 ± 0.68	4.489 ± 0.0069
V136E S279T	0.991 ± 0.11	2.42 ± 0.69	3.916 ± 0.02	4.035 ± 0.0064
Q231R	2.063 ± 0.0082	1.67 ± 0.03	2.29 ± 0.081	4.3759 ± 0.0039
G121V G261V	1.847 ± 0.017	1.58 ± 0.052	2.58 ± 0.083	4.418 ± 0.0075
A87P V301M E357G	2.37 ± 0.024	1.18 ± 0.053	4.51 ± 0.0073	3.619 ± 0.014
S70R A87P V301M E357G	3.59 ± 0.015	1.66 ± 0.081	4.5727 ± 0.004	3.672 ± 0.019
L90Q L198M E235D T336S	1.88 ± 0.022	1.61 ± 0.073	2.51 ± 0.2	4.423 ± 0.0091
V80L I83M S97T	1.986 ± 0.0056	1.55 ± 0.025	1.99 ± 0.077	3.8535 ± 0.0021
A72V K84N I210F M254T T336S	0.962 ± 0.049	0.934 ± 0.078	4.369 ± 0.0082	4.067 ± 0.0058
D130E	1.902 ± 0.012	1.76 ± 0.057	2.29 ± 0.45	4.467 ± 0.0052
V136E	1.69 ± 0.034	1.5 ± 0.13	2.46 ± 0.36	4.015 ± 0.014
S70R V136E	1.841 ± 0.017	1.69 ± 0.085	4.55 ± 0.0061	3.806 ± 0.01
